According to patent US20210270842A1 (DYAX, published 2021):

T1: intact high molecular weight kininogen (HMWK) (Homo sapiens, UniProt P01042 19-644)
T1 construct: also called intact HMWK; 1-chain HMWK
T1 sequence: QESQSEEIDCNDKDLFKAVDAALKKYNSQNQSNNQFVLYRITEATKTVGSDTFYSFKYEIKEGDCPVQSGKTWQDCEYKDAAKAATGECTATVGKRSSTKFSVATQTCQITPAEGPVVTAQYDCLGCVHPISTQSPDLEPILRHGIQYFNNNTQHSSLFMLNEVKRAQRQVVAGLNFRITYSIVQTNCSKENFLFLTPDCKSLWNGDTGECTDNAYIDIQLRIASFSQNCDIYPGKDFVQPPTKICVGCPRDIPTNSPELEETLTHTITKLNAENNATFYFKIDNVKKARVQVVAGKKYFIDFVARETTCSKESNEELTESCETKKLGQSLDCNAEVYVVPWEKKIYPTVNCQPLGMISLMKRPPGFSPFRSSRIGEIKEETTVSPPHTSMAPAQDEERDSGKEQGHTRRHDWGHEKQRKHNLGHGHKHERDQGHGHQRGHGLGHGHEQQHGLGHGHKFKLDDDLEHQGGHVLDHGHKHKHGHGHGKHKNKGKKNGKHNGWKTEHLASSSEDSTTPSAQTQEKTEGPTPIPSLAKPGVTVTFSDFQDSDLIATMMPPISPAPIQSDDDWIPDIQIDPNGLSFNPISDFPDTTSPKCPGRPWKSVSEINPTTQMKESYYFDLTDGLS


Assays:
[1] = molecular target: T1, intact high molecular weight kininogen …; assay: Fab passively immobilized on 384-well plate, biotinylated antigen, streptavidin-HRP
Source text: A: plots the ratio of the result of a 2-chain HWMK binding assay to a LMWK binding assay on the y-axis compared to the ratio of the result of a 2-chain HMWK binding assay to a 1-chain HMWK binding assay on the x-axis for each antibody (Fab) tested. Recombinant Fab fragments were passively immobilized onto 384-well plates prior to addition of biotinylated 2-chain HMWK, 1-chain HMWK, or LMWK, followed by streptavidin-HRP.
The depleted library was then contacted with biotinylated 2-chain HMWK immobilized on streptavidin coated magnetic beads. The beads were extensively washed with PBS buffer and used to infect E. coli for phage output amplification to complete a round of selection. Three rounds of selection were performed prior to screening individual phage colonies by ELISA with biotinylated 1-chain and 2-chain HMWK immobilized on streptavidin coated plates followed by detection with horse radish peroxidase (HRP) conjugated anti-M13 antibody and absorbance detection due to substrate hydrolysis for 3,3′,5,5′-Tetramethylbenzidine (TMB). […] The specificity of each purified Fab was determined by coating 384 well plates and measuring binding to biotinylated 1-chain HMWK, to biotinylated 2-chain HMWK, or to biotinylated LMWK, followed by detection with streptavidin conjugated to HRP and TMB detection.

[2] = molecular target: T1, intact high molecular weight kininogen …; assay: ELISA: Fab coated on 96-well plate, LowCross block, biotinylated antigen, streptavidin-HRP; signal over uncoated well
Procedure: Thirty-six purified Fab clones (see Table 2 below) were assessed for binding to cleaved HWMK, intact HMWK, and LWMK using the immunoassay described in Example 1. Specifically, each of the purified Fab clones was immobilized on 96-well assay plates at a concentration of […]) in a total volume of 100 μL in PBS and incubated overnight at 2-8° C. The assay plates were blocked using LowCross blocking buffer. Biotinylated intact HMWK, biotinylated cleaved HMWK or biotinylated LMWK ([…]) was added to each well in a total volume of 100 μL and incubated for 2 hours prior to washing with a wash buffer. HRP-labeled streptavidin was added to each well at a concentration of 100 ng/mL, and the signal was developed using Ultra TMB Substrate. The signal to noise ratio was calculated using the signal observed upon the addition of the biotinylated protein to an uncoated well. (FIG. 2, panels A and B). Based on the ELISA results, the antibodies can be divided among 5 categories (Table 2).

Row | Binder | binding result [1] | binding result [2]
1 | 559B-M0064-H02 (Fab, V domains shown, Purified recombinant Fab; …GQPKANP)) VH: EVQLLESGGGLVQPGGSLRLSCAASGFTFSQYIMGWVRQAPGKGLEWVSSIGSSGVTVYADSVKGRFTISRDNSKNTLYLQMNSLRAEDTAVYYCARGGGVTVLHAFDIWGQGTMVTVSS VL: QSALTQPASVSGSPGQSITISCTGTSSDVGGYNYVSWYQQHPGKVPKLIIYEGNKRPSGVPDRFSGSKAGNTASLTVSGLQAEDEADYYCTAYGGHSRFYVFGTGTKVTVLG | binds | –
2 | 559B-M0070-H10 (Fab, V domains shown, also called M070-H10) VH: EVQLLESGGGLVQPGGSLRLSCAASGFTFSTYGMRWVRQAPGKGLEWVSVISPSGGKTNYADSVKGRFTISRDNSKNTLYLQMNSLRAEDTAVYYCARGRPDYYAMDVWGQGTTVTVSS VL: QSALTQPPSASGAPGQRVTISCSGSSSNIGSNTVNWYQKLPGTAPKLLIYYNDRRPSGVPDRFSGSKSGNTASLTISGLQAEDEADYYCAAWDDSLSGPVFGGGTKLTVL | binds | –
3 | 559B-M0004-E08 (Fab, V domains shown) VH: EVQLLESGGGLVQPGGSLRLSCAASGFTFSMYHMNWVRQAPGKGLEWVSSIYSSGGSTRYADSVKGRFTISRDNSKNTLYLQMNSLRAEDTAVYYCARGVRYGMDVWGQGTTVTVSS VL: DIQMTQSPSSVSASVGDRVTITCRASQGISSWLAWYQQKPGKAPKLLIYAASSLQSGVPSRFSGSGSGTDFTLTISSLQPEDFATYYCQQANSFPITFGQGTRLEIK | – | binds
4 | 559B-M0065-B10 (Fab, V domains shown) VH: EVQLLESGGGLVQPGGSLRLSCAASGFTFSKYFMTWVRQAPGKGLEWVSWISSSGGYTNYADSVKGRFTISRDNSKNTLYLQMNSLRAEDTAVYYCARGAYYYDAFDIWGQGTMVTVSS VL: DIQMTQSPSSLSASVGDRVTITCRASQSIAIFLNWYQQTPGKPPKLLIYGASTLQSGVPSRFSGSGSGADFTLTISNLQLEDFTTYYCQQSYSTLYTFGQGTKLEIK | – | binds
